Assay: yeast display, Sf9 membrane polyspecificity reagent, FACS + sequencing; frameworks hold sequencing errors
Summary of the method: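 Using colony PCR, genes from sorted yeast display clones were amplified, then sequenced on MiSeq at 2 × 250 and filtered by CDR length. The clones had been stained with 10% biotinylated, detergent-solubilized Sf9 membrane reagent for 1 hour at 4 °C and sorted by FACS into low and high (top ~1%) gates on anti-HA and streptavidin fluorescence. Polyreactivity labels come from the gate of origin.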

Q: Which “polyreactivity (PSR sort gate)” value does the source give for “QVQLVESGGGLVQAGGSLRLSCAASGFIFVTYAMGWYRQAPGKERELVAAITNSGGTTYYADSVKGRFTISRDNAKNTVYLQMISLKPEDSAVYYCNKPYGAETAHREFDYWGQGTQVTVSS” here?
A: low polyreactivity

Q: Which “polyreactivity (PSR sort gate)” value does the source give for “QVQLVESGGGLVQAGGSLRLSCAASGSTFYKYAMGWYRQAPGKERELVAVITKSGGSTYYADSVKGRFTISRDNEKNTVYLQMNSLKPEDTAVYYCAAEDHYGYNSGYDYWGQGTQVTVSS” here?
A: high polyreactivity

Q: Which “polyreactivity (PSR sort gate)” value does the source give for “QVQLVESGGGLVHAGGSLRLSCAASGRTLWYYTMGWYRQAPGKEMELVADITRGTSTNYADSVKGRFTISRDNAKNTVYLQMNILKPEDTAVYYCNRAHGRSRYSRDYDSWGQGTQVTVSS” here?
A: low polyreactivity

Q: With “QLQLVESGGGLVQAGGSLRLSCAASGLILYSYAMGRYRQAPGKERELVADISSGGITNYADSVKGRFTISRDNAKNTVYLQMNSLKPADTAVNYCAADTRPVNYILYEYWGQGTQVTVSS” as the sequence, how does the “polyreactivity (PSR sort gate)” value read?
A: low polyreactivity

Q: For “QVQLVESGGGLVQAGGSLRLSCAASGIFGWYAMGWYRQAPGKEREFVATINWSGGRTYYADSVKGRFTISRDNAKNTVYLQMNSLKPEDTAVYYCAAENYASEYDYWGQGTQVTVSS”, which “polyreactivity (PSR sort gate)” value is on record?
A: low polyreactivity

Q: For “QVQLVESGGGLVQAGGSLRLSCAASGSIYYNAMGWYRQAPGKERELVASISTGDSTDYADSVKGRFTISRDNAKNTFYLQMNSLKPEDTAVYYCAADTRLGYWDDYWGQGTQVTVSS”, which “polyreactivity (PSR sort gate)” value is on record?
A: low polyreactivity

Q: With “QVQLVESGGGLVQAGGSLRLSCAASGRIFSDYAMGWYRQAPGKERELVATITSGDSTNYEDSVKGRFTISRDNAKNTVYLQMNSLKPVDTAVYYCIADRYADYDYWGQGTQVTVSS” as the sequence, how does the “polyreactivity (PSR sort gate)” value read?
A: low polyreactivity

Q: With “QVQLVESGGGLVQAGGSLRLSCAASGSTFRYYTMGWYRQAPGKERELVAAISSSGTRTYYADSVKGRFTISRDYAKNTVYLQMNSLKPEDTAVYYCDTVFLRSDGWRRSNMDYWGQGTQVTVSS” as the sequence, how does the “polyreactivity (PSR sort gate)” value read?
A: high polyreactivity

Q: For “QVQLVESGGGLVQAGGSLRLSCAASVRTFKYYAMGWYRQAPGKERELVAAISWSGSSTYYADSVKGRFTISRDNAKNTVDLPMNSLKPEDPAVYYCAAATYRQFTGTYDYWGQGTQVTVSS”, which “polyreactivity (PSR sort gate)” value is on record?
A: high polyreactivity

Q: For “QVQLEESGGGLVQAGGSLRLSCAASGFTFARNGMGWYRQAPVKESEFVAAITRSGGRTYYADSVKGRFTISRDNAKNTVYLQMNSLKPEDTAVYYCAAATSYGKSEYDYWGQGTQVTVSS”, which “polyreactivity (PSR sort gate)” value is on record?
A: high polyreactivity

Q: For “QVQLVESGGGLVQAGGSLRLSCAASGSTFEYYAMGWYRQAPGKERELVATISIDGRTNYADSVKGRFTISRDNAKNTVYLQMNSLKPEDTAVYYCAADTNWSPGYIMYYRSDYWGQGTQVTVSS”, which “polyreactivity (PSR sort gate)” value is on record?
A: low polyreactivity

Q: With “QVQLVESGGGLVQAGGSLRLSCAASGRTLRLYVMGWYRQAPGKERELVAAISRSGGRTYYADSVKGRFTISRDNATNTVYLQMNSLKPEDTAVYYCAADSGRYGYDYWGQGTLVTVSS” as the sequence, how does the “polyreactivity (PSR sort gate)” value read?
A: high polyreactivity

Q: With “QVQLVESGGGLVQAGGSLRLSCAASGNIFGRYAMGWYRQAPGKERELVAAISWSGGSTFYADSVKGRFTISRDNAKNTVYLQMNSLKPEDTAVYYCAAEYWVYDSYWFDYDYWGQGTQVTVSS” as the sequence, how does the “polyreactivity (PSR sort gate)” value read?
A: high polyreactivity

Q: For “QVQLVESGGGLVQAGGSLRLSCAASGGTFNTYAMGWYRQAPGKERELVAAITSSGGSTFYADSVKGRFTISRDNAKNTVYLQMNSLKPEDTAVYYCAAKSYWTIVYRHPGYYYWGQGTQVTVSS”, which “polyreactivity (PSR sort gate)” value is on record?
A: low polyreactivity

Q: For “QVQLQESGGVQAGGSLRLSCAESGYISRSDVMGWYRQAPGKERELVATINNGTITYYADSVKGRFTISRDNAKNTVYLQMNSLKPEDTAVHYCAVVQSDTDSLYYWGQGTQVTVSS”, which “polyreactivity (PSR sort gate)” value is on record?
A: low polyreactivity

Q: Which “polyreactivity (PSR sort gate)” value does the source give for “QVQLVESGGGLVQAGGSLRLSCAASGLTFHRYAMGWYRPAPGKERELVAAINYSGGRTYYADSVKGRFTISRDNAKYTVYLQMNSLKPEDTAVYYCAARFSRVYPRYDYWGQGTQVTVSS” here?
A: high polyreactivity

Q: With “QVQLVESGGGLVQAGGSLRLTCAASASTFKPYAMGWDRQAPGKERELVAAINGSGGDTYYADSVKGRFTISRDNAKTTVYLQMNSLKPEDTAVYYCAAQWGYYNYWYGYWGQGSQVTVSS” as the sequence, how does the “polyreactivity (PSR sort gate)” value read?
A: low polyreactivity

Q: For “QVQLVESGGGLVQAGGSLRLSCAASGSIFPYYAMGWYRQAPGKERELVAAISGSGGSTYYADSVKGRFTISRDNAKNTVYLQLNSLKPVDTAVYYCATADVYVYWYTSTDDYWGQGTQVTVSS”, which “polyreactivity (PSR sort gate)” value is on record?
A: low polyreactivity

Q: For “QVQLVESGGGLVQAGGSLRLRCAASGFNFSFDNAMGWYRQAPGKERELVAAISSGTTTHYADSVKGRFTISRDNAKNTVYLQMNSLKPEDTAVYYCAADTAQQSGYEYDYWGQGTQVTVSS”, which “polyreactivity (PSR sort gate)” value is on record?
A: low polyreactivity

Q: For “QVKLVESGGGLVQAGGSLRFTCAASGRTFGSNAMGWYRQAPGKERELVAVITTSGGSTYYADSVKGRFTISRDNAKNTVYLQMISLKPEDTAVYSCAKRVATGYKSYGYGYWGQGTQVTVSS”, which “polyreactivity (PSR sort gate)” value is on record?
A: high polyreactivity

Q: With “QVQHVESGGCLVQAGGSLRLSCAASGRIFRGYAMGWYRQAPGKERELVAAISSRGSTYYADSVKGRFTNSRDNAKNTVYLQMNSLKPEDTAVYYCAKSEYARLSGFRYRTGYNYWGQGTQVTVSS” as the sequence, how does the “polyreactivity (PSR sort gate)” value read?
A: high polyreactivity

Q: Which “polyreactivity (PSR sort gate)” value does the source give for “QDQLGESGGGLLQAGGSLRLSCAASGRTFRYYAMGSYRQEPGKERELVAAISISGGNTYYADSVKGRFTISRDHAKNTVYLQMNSLKPEDTAVYYCAASFSSRFYRARVDYWGQGTQVTVSS” here?
A: high polyreactivity

Q: With “QVQLVESGGGLVQAGGSLRLSCAASGSIFGDNAMGWYRQAPGKERELVAAITSSGGSTYYADSVKGRFTISRDNAKNSVYLQMNSLKPEDTAVYYCNADFGYGWYLRYDYWGLGTQVTVSS” as the sequence, how does the “polyreactivity (PSR sort gate)” value read?
A: high polyreactivity

Q: For “QVHLVESGGGLVQAGGSLRLSCAASGSTFPVNAMGWYRQAPGKERELVAAIRSSTGRTYYADSVKGRFTISRDNAKNSVYLQMNSLKPEDTAVYNFAAEGDYYDFISPPLDYWGQGTQVTVSS”, which “polyreactivity (PSR sort gate)” value is on record?
A: low polyreactivity

Q: With “QVQLVESGGGLVQAGGSLRLSCAASGRIFWINAMGWYRQAPGKERELVAAISSGGGTHYADSVKGRFTISRDNAKNTVYLQMNSLKPEDTAVSYCARRYQRKKPVFPHYQGAYDYWGQGTQVTVSS” as the sequence, how does the “polyreactivity (PSR sort gate)” value read?
A: low polyreactivity

Q: Which “polyreactivity (PSR sort gate)” value does the source give for “QVQIVESGGGLVQAGGSLRLSCAPSGRIFRKYAMGWYRQAPGKERELVAAISVGGGSTRYADSVKGRFTISRDNAKNTVYLQMNSLKPEDTAVYYCAVKWFSGGYDYWGQGTQVNVSS” here?
A: low polyreactivity

Q: With “QVQLVESGGGLVQAGGSLRLSCAASGRIFYRNAMGWYRQAAGKERELVAGITRGGSTNYADSVKGRFTISRDNAKNTDYLQMNSLKPEETAVYYCAKAIPAKFYSEAGYDYWGQGTQVTVSS” as the sequence, how does the “polyreactivity (PSR sort gate)” value read?
A: low polyreactivity

Q: For “QVQLVESVGGLVQAGGSLRLSCAASGRIFYTYAMGWYRPAPGKERELVAAISSRTGSTYYADSVKGRFTISRDNAKNTVYLQMNSLKPEDTAVYYCNAYRLRYGYDYWGQGTQVTVSS”, which “polyreactivity (PSR sort gate)” value is on record?
A: high polyreactivity

Q: With “QVQLVESGGGLVQAGGSLRLSCAASGSTLVTYAMGWYRQAPGKERELVAAISWRGGSTYYADSVKGRFTISRDNAKNTVELQMNSLKPEDTAVYYCNKLRAYKESETYYYWGQGTQVTVSS” as the sequence, how does the “polyreactivity (PSR sort gate)” value read?
A: low polyreactivity

Q: For “QVQLVESGGGIVQAGGSLRLICAASGSIFNGYALGWYRQAPGKERDLVAAISWRGGTTYYADSVKGRFSISRDTAKNTVYLQMNSLKPEDTAVYYCAARHFARMGYWGQGTQVTVSS”, which “polyreactivity (PSR sort gate)” value is on record?
A: high polyreactivity

Q: With “QVQLVESGGGLVQAGGSLRLSCAASGLIFSVYGMGWYRQAPGKERELVAAISSRGGSTYYADSVKGRFTISRDLAKNTVYLQMNSLKQEDTAVYYCAARSNYRMDYWGQGTQVTVSS” as the sequence, how does the “polyreactivity (PSR sort gate)” value read?
A: high polyreactivity

Q: For “QVQLVESAGGLVQAGGSLRLSCAASGRTSDGYAMGWSRQAPGKERELVAGITEGGGDTYYADSVKGRFTISRDNAKNTVYLQMNSLKTEDTAVYYCAKDLRRYLSWWYRYPYDYWGQGTQVTVSS”, which “polyreactivity (PSR sort gate)” value is on record?
A: low polyreactivity

Source: the nanobody polyreactivity screen of Harvey et al. (2022)
